One block for each molecule: values may come before it.
Key:
[1] = molecular target: T1, LFA-1 (heterodimeric CD11a/CD18) (human, UniProt P20701 26-1170; P05107 23-769); experiment: competition on Jurkat cells at 4 C; HI111 at 1 microg/mL against 35S-labelled 3D-ICAM-1/Fc
T1 construct: whole, on cells; Endogenous LFA-1 on Jurkat cells (and on human PBMC) in the cell assays; In the BIAcore assay and the co-immunoprecipitations it was the whole heterodimer from octylthioglucoside lysates of Jurkat cells; also called LFA-1 molecule; LFA-1 counter receptor

[2] = molecular target: T2, 3D-ICAM-1/Fc chimeric protein (three first extracellular domains of ICAM-1 fused to the Fc fragment of human … (human, UniProt P05362 28-311, limits assumed, 35S methionine metabolic label in the ICAM-1 binding assays)); experiment: coprecipitation
T2 construct: domain: three first extracellular domains of ICAM-1; Expressed in 293 cells and purified on an anti-human Fc agarose column; also called soluble ICAM-1; soluble ICAM-1/Fc; not shown: Fc fragment of human IgG1

[3] = molecular target: T1, LFA-1 (heterodimeric CD11a/CD18); experiment: BIAcore, from the ratio of the rate constants; ESM-1 over LFA-1 captured by immobilized HI111
Description: The affinity constant was calculated from the equation Kd=kd/ka.
To better define the interaction between LFA-1 and ESM-1, a real-time observation by BIAcore analysis was carried out. Sensor chip was filled with detergent lysates of Jurkat cells in order to capture functional LFA-1 molecules. Specific binding of the heterodimeric form of LFA-1 to the anti-CD11a mAb coupled censorship was observed. In this assay, anti-CD11a mAb (HI111) was immobilized on the surface of the carboxymethyl 5 sensor chip as described in Materials and Methods. The binding of heterodimeric LFA-1 to mAb coated chip was consistently detected. The presence of both CD11a chain and CD18 chain was checked by injecting either another anti-CD11a mAb (G43-25B), or an anti-CD18 mAb in the LFA-1 captured channel. As reported in FIG. 18A, LFA-1 was strongly captured under its heterodimeric form, which was essential to keep functionality of LFA-1. Next, we have also examined the interaction of LFA-1 and purified human ESM-1 by BIAcore biosensor. […] No interaction was detected between the mAb coated surface or control surface and ESM-1 at the highest concentration used in this experiment (data not shown). Purified ESM-1 was then injected at indicated concentrations to the LFA-1 captured surface, and the response (in resonance units) versus time (in seconds) was recorded. […]

[4] = molecular target: T3, CD2 on Jurkat cells (human, UniProt P06729 25-351); experiment: co-immunoprecipitation with anti-CD2 mAb from lysates of Jurkat cells incubated with 300 ng/mL ESM-1; ESM-1 ELISA of eluate
T3 construct: whole, on cells
T3 sequence (looked up): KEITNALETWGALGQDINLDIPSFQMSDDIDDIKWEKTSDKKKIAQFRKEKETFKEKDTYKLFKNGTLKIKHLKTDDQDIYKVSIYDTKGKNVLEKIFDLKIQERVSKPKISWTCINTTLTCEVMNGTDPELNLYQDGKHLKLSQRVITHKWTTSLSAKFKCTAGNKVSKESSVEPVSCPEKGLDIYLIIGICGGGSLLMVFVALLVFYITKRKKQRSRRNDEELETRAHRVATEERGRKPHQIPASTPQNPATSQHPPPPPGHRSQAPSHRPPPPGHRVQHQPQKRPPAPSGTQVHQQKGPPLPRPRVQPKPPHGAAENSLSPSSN
Description: (§1) FIGS. 17A–B: An anti-CD11a mAb coimmunoprecipitates ESM-1 with LFA-1 and increases ESM-1 binding to Jurkat cells. A. Coimmunoprecipitation of ESM-1 with LFA-1 : Jurkat cells were incubated with ESM-1 for 1 hour at 4° C. and immunoprecipitations were done with different mAbs according to the procedure previously described (none, anti-ESM-1 (MEC15), anti-CD3, anti-CD11a (1), ie clone HI111, anti-CD11a (2), ie clone G43-25B anti-CD18, anti-CD44, anti-CD2). Beads were washed and eluted. ESM-1 contents from eluates were analyzed by a specific ELISA. B. Activation of the binding of ESM-1 by an anti-CD11a mAb: Jurkat cells were firstly incubated in binding medium with different mAbs (none, anti-CD11a (1), anti-CD11a (2), IgG control) for 1 h at room temperature and secondly with ESM-1 for 1 h at 4° C. Cells were washed and lysed. ESM-1 was quantified by a specific ELISA in lysates (n=5).

[5] = molecular target: T4, CD44 on Jurkat cells (human, UniProt P16070 21-742); experiment: co-immunoprecipitation with anti-CD44 mAb from lysates of Jurkat cells incubated with 300 ng/mL ESM-1; ESM-1 ELISA of eluate
T4 construct: whole, on cells
Description: as §1

[6] = molecular target: T1, LFA-1 (heterodimeric CD11a/CD18); experiment: BIAcore, purified ESM-1 (5 concentrations, 50 to 300 nM) over LFA-1 from Jurkat lysate captured by immobilized HI111, 25 C, PBS with 1 mM MgCl2 and 1 mM MnCl2
Description: LFA-1 molecules from the Jurkat lysates could only be fixed by immuno-affinity procedure. 200 millions of Jurkat cells were lysed in 2 mL of lysis buffer (PBS, 1 mM MgCl2, 1 mM MnCl2, complete anti-proteases cocktail EDTA-free and 5 mM octylthioglucoside) for 30 min at 4° C. After removal of insoluble material by centrifugation and incubation in a sonication bath, the lysate was injected at a flow rate of 5 microL/min for 30 min at 25° C. in order to immobilize approximatively 1500 RU of LFA-1 molecules. Next, CD11a mAb (G43-25B), CD18 mAb and purified ESM-1 were diluted in running buffer (PBS, 1 mM MgCl2, 1 mM MnCl2) and injected at a flow rate of 5 microL/min for 5 min at 25° C. The association rate constant (ka) and the dissociation rate constant (kd) were fitted calculated according to the BIAevaluation software version 3.1 provided by the manufacturer. The affinity constant was calculated from the equation Kd=kd/ka.
To better define the interaction between LFA-1 and ESM-1, a real-time observation by BIAcore analysis was carried out. Sensor chip was filled with detergent lysates of Jurkat cells in order to capture functional LFA-1 molecules. […] The binding of heterodimeric LFA-1 to mAb coated chip was consistently detected. […] No interaction was detected between the mAb coated surface or control surface and ESM-1 at the highest concentration used in this experiment (data not shown).

T1 sequence (P20701 26-1170, chain 1 of 2): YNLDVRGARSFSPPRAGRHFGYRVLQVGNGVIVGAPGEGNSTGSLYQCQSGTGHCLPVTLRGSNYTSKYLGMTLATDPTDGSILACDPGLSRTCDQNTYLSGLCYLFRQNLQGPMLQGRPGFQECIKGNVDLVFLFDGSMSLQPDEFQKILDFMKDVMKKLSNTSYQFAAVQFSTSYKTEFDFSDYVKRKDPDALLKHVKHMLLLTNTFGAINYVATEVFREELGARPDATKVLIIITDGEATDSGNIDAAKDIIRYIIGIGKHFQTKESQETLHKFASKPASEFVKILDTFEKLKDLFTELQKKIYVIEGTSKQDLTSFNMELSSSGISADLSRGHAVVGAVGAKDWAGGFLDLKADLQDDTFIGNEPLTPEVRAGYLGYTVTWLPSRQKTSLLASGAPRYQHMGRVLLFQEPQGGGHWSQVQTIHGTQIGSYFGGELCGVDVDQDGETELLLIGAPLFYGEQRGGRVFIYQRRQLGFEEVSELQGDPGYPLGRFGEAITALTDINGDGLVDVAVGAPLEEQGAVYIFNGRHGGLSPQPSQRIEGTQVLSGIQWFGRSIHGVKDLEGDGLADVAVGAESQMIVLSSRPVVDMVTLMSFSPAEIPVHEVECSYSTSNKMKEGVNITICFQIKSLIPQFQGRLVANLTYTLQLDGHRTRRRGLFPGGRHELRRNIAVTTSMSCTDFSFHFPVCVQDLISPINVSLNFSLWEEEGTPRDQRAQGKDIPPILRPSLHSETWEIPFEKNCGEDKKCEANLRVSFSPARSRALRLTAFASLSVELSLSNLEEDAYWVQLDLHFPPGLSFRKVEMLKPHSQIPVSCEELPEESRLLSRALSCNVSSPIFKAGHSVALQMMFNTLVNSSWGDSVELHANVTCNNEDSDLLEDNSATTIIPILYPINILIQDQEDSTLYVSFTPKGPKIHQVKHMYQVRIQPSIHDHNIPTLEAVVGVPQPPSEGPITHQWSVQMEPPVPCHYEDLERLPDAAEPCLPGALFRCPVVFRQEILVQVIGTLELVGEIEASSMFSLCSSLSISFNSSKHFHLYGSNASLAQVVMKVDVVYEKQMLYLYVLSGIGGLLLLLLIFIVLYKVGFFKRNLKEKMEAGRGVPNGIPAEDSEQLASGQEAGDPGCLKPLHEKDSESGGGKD
T1 sequence (P05107 23-769, chain 2 of 2): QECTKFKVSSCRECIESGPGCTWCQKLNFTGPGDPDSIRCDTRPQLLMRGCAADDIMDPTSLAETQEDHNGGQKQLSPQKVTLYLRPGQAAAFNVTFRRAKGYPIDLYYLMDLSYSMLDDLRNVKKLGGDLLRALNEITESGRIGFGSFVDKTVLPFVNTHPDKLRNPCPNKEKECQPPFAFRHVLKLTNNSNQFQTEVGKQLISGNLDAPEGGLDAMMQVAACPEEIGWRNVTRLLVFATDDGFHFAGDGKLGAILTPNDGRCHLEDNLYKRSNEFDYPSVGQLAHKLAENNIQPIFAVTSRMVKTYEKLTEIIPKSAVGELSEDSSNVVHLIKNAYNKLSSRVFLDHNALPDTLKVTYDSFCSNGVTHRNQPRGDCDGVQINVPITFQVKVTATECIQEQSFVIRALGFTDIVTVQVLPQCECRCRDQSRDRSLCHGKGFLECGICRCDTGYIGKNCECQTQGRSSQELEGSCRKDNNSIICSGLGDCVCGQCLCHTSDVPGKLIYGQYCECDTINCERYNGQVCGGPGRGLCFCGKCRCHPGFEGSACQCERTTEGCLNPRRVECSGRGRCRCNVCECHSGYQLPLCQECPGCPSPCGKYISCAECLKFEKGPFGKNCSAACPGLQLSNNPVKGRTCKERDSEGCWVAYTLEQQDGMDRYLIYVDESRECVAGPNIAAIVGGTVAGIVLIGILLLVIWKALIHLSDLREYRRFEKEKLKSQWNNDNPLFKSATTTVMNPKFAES
T4 sequence (P16070 21-742): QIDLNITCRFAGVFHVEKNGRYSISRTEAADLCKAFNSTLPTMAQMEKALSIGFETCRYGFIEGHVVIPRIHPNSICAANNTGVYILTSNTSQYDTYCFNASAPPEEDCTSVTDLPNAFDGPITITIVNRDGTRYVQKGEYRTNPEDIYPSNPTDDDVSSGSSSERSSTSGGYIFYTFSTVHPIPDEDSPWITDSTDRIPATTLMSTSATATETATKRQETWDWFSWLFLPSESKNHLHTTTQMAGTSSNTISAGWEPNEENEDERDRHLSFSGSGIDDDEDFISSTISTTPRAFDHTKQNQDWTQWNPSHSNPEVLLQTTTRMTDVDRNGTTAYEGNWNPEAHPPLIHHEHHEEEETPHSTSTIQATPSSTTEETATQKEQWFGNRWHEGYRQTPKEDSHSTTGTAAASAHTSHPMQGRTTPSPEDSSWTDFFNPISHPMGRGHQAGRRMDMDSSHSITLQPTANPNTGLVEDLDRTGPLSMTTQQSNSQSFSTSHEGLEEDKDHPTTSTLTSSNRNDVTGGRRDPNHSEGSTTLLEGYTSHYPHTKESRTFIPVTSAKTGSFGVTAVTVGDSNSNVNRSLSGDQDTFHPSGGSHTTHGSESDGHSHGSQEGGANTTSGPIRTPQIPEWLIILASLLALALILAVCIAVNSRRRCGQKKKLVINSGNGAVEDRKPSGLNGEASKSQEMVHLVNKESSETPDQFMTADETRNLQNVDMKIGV
T2 sequence (P05362 28-311 limits assumed, stated change not applied): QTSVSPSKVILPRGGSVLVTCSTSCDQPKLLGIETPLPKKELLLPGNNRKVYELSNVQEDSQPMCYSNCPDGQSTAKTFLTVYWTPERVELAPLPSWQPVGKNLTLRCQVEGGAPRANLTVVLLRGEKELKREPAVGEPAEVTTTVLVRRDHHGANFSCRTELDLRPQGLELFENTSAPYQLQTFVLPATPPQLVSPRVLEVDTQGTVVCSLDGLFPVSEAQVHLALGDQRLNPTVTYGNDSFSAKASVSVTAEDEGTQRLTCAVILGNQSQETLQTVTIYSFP

labelled ICAM-1 still bound (cpm) [1]: 837 cpm
Molecule: anti-CD11a mAb clone HI111 (antibody)

binding result [2]: no binding | Kd [3]: 18.7 nM | binding result [4]: no binding | binding result [5]: no binding | koff [6]: 0.000825 s⁻¹ | kon [6]: 44100 M⁻¹ s⁻¹
B1: secreted ESM-1 protein (Endothelial Cell Specific Molecule-1), purified wild-type form (ligand)
chain: WSNNYAVDCPQHCDSSECKSSPRCKRTVLDDCGCCRVCAAGRGETCYRTVSGMDGMKCGPCLRCQPSNCEDPFGEEFGICKDCPYGTFGMDCRETCNCQSCICDRGTGKCLKFPFFQYSVTKSSNRFVSLTEHDMASGDGNIVREEVVKENAAGSPVMRKWLNPR
notes: The secreted form runs at about 50 kD and is described as glycosylated (a proteoglycan); also called ESM/WT; extracellular ESM-1

Source: patent US6670328 (INSTITUT PASTEUR DE LILLE, dated 2003)
